Results: the RNAGym collection of RNA variant scans (doi:10.1073/pnas.2313332121)
Variants at the floor of the assay were thinned out.

B1: TPR 5TU (parent)
chain: GGAUCUUCUCGAUCUAACAAAAAAGACAAAUCUGCCACAAAGCUUGAGAGCAUCUUCGGAUGCAGAGGCGGCAGCCUUCGGUGGCGCGAUAGCGCCAACGUUCUCAACUAUGACACGCAAAACGCGUGCUCCGUUGAAUGGAGUUUAUCAUG

Variants of: B1
Assay: polymerase ribozyme fitness, log enrichment relative to wild type (log ratio); higher = more active; in vitro selection for triplet polymerase activity
Outline: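 For each subunit of a heterodimeric triplet polymerase ribozyme, a mutant library was built by PCR and transcribed, then taken through a single in vitro selection round in triplicate. Selection involved annealing to a biotinylated primer, the partner subunit and triplets, incubation frozen at −7 °C, gel excision of extended constructs, capture on streptavidin beads and RT-PCR. Genotypes were retained after Illumina sequencing of inputs and outputs only with ≥10 input reads and ≥1 read in each output. Fitness is defined as the logarithm of a genotype's enrichment relative to wild-type enrichment, using inverse-variance-weighted averages across replicates, with the logarithm taken to base 2.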

With GGAUCUUCUCGAUCUAACAAAAAAGACAAAUCUGCCACAAAGCUUGAGAGCAUCUUCGGAGGCAGAGGCGGCAGCCUUCGGUGGAGCGAUAGCGCCAACGUUCUCAACUAUGACACGCAAAACGCGUGCUCCGUUGAAUGAAGUUUAUCAUG [U61G C85A G141A] as the variant, how does the “polymerase ribozyme fitness (log ratio)” value read?
Its value is -1.58.

For GGAUCUUCUCGAUCUAACAAAAAAGACAAAUCUGCCACAAAGCUUGAGAGCAUCUUCGGAGGCAGAGGCGGCAGCCUUCGGUGGCGCGAUAGGGCCAAGGUUCUCAACUAUGACACGCAAAAGGGGUGCUCCGUUGAAUGGAGUUUAUCAUG [U61G C93G C99G C123G C125G], which “polymerase ribozyme fitness (log ratio)” value is on record?
Its value is no more than -4.2.

For GGAUCUUCUCGAUCUAACAAAAAAGACAAAUCUGCCACAAAGCUUGAGAGCAUCUUCGGAGGCAGAGGCGGCAGCCUUCGGUGGCGCGAUAGUGCCAACGUUCUCAACUAUGACACGCAAAACGCGUGCUCCGUUGAAUGGAGUUUAUCAUG [U61G C93U], which “polymerase ribozyme fitness (log ratio)” value is on record?
Its value is -1.89.

With GGAUCUUCUCGAUCUAACAAAAAAGACAAAUCUGCCACAAAGCUUGAGAGCAUCUUCGGAGGCAGAGGCGGCAGCCUUCGGUGGCGCGAUAGAGCCAACGUUCUCAACUAUGACACGCAAAACGCGUGCUCCGUUGAAUGGAGUUUAUCAUG [U61G C93A] as the variant, how does the “polymerase ribozyme fitness (log ratio)” value read?
Its value is -4.13.

Which “polymerase ribozyme fitness (log ratio)” value does the source give for GGAUCUUCUCGAUCUAACAAAAAAGACAAAUCUGCCACAAAGCUUGAGAGCAUCUUCGGAGGCAGAGGCGGCAGCCUUCGGUGGCGCGAUAGCGUCAACGUUCUCAACUAUGACACGCAAAACGCGUGCUCCGUUGAAUGGAGUUUAUCAUG [U61G C95U] here?
The value was -2.07.

Which “polymerase ribozyme fitness (log ratio)” value does the source give for GGAUCUUCUCGAUCUAACAAAAAAGACAAAUCUGCCACAAAGCUUGAGAGCAUCUUCGGAGGCAGAGGCGGCAGCCUUCGGUGGCGCGAUAGCGGCAACGUUCUCAACUAUGACACGCAAAACGCGUGCUCCGUUGAAUGGAGUUUAUCAUG [U61G C95G] here?
The value was -2.32.

With GGAUCUUCUCGAUCUAACAAAAAAGACAAAUCUGCCACAAAGCUUGAGAGCAUCUUCGGAGGCAGAGGCGGCAGGCUUCGGUGGCGCUUUAGCGCCAACGAUCUCAACUAUGACACGCAAAACGCGUGCUCCGUUGAAUCGAGUUUAUCAUG [U61G C75G G88U A89U U101A G140C] as the variant, how does the “polymerase ribozyme fitness (log ratio)” value read?
The value was no more than -4.2.

With GGAUCUUCUCGAUCUAACAAAAAAGACAAAUCUGCCACAAAGCUUGAGAGCAUCUUCGGAGGCAGAGGCGGCAGCCUUCGGUGGAGCGAUAGCGCCAACGUUCUCAACUAUGACACGCAAAACGCGUGCUCCGUUGAAUGGAGUUUAUCAUG [U61G C85A] as the variant, how does the “polymerase ribozyme fitness (log ratio)” value read?
The value was -2.29.

With GGAUCUUCUCGAUCUAACAAAAAAGACAAAUCUGCCACAAAGCUUGAGAGCAUCUUCGGAGGCAGAGGCGGCAGCGUUCGGUGGCGCGAUAGCGCCAACGUUCUCAACUAUGACACGCAAAAUGCGUGCUCCGUUGAAUGGAGUUUAUCAUG [U61G C76G C123U] as the variant, how does the “polymerase ribozyme fitness (log ratio)” value read?
The value was no more than -4.2.

With GGAUCUUCUCGAUCUAACAAAAAAGACAAAUCUGCCACAAAGCUUGAGAGCAUCUUCGGAGGCAGAGGCGGCAGCCUUCGGUGGCGCGAUAGCGUCGACGUUCUAUACUAUGACACGCAAAACGCGUGCUCCGUUGAAUGGAGUUUAUCAUG [U61G C95U A97G C105A A106U] as the variant, how does the “polymerase ribozyme fitness (log ratio)” value read?
Its value is no more than -4.2.

For GGAUCUUCUCGAUCUAACAAAAAAGACAAAUCUGCCACAAAGCUUGAGAGCAUCUUCGGAGGCAGAGGCGGCAGCCUUCGGUGGCGCGAUAGCGCCAACGUUCUCAACUAUGACACGCAAACCGCGUGCUCCGUUGAAUGGAGUUUAUCAUG [U61G A122C], which “polymerase ribozyme fitness (log ratio)” value is on record?
Its value is -1.51.

For GGAUCUUCUCGAUCUAACAAAAAAGACAAAUCUGCCACAAAGCUUGAGAGCAUCUUCGGAGGCAGAGGGGGCAGCCUUCGGAGGCGCGAUAGCGACAACGUUCUCAACUAUGACACGCAAAUCGCGUGCUCCGUUGAAUGGAGUUUACCAUG [U61G C69G U82A C95A A122U U148C], which “polymerase ribozyme fitness (log ratio)” value is on record?
Its value is no more than -4.2.

For GGAUCUUCUCGAUCUAACAAAAAAGACAAAUCUGCCACAAAGCUUGAGAGCAUCUUCGGAGGCAGAGGCGGCAGCCUUCGGUGGCGUGAUAGCGCCAACGUUCUCAACUAUGACACGCAAAACGGGUGCUCCGUUGAAUGGAGUUUAUCAUG [U61G C87U C125G], which “polymerase ribozyme fitness (log ratio)” value is on record?
Its value is no more than -4.2.

For GGAUCUUCUCGAUCUAACAAAAAAGACAAAUCUGCCACAAAGCUUGAGAGCAUCUUCGGAGGCAGAGGCGGCAGCCUUCGGUGGCGAGAUAGCGCCAACGUUCUCAACUAUGACACGCAAAACGCGUGCUCCGUUGAAUGGAGUUUAUCGUG [U61G C87A A150G], which “polymerase ribozyme fitness (log ratio)” value is on record?
Its value is no more than -4.2.

Which “polymerase ribozyme fitness (log ratio)” value does the source give for GGAUCUUCUCGAUCUAACAAAAAAGACAAAUCUGCCACAAAGCUUGAGAGCAUCUUCGGAGGCAGAGGCGGCAGUCUUCGGUGGCGCGAUAGCGCCAACGUUCUCAACUAUGACACGCAAAACGCGUGCUCCGUUGAAUGGAGCUUAUCAUG [U61G C75U U144C] here?
Its value is -1.52.

For GGAUCUUCUCGAUCUAACAAAAAAGACAAAUCUGCCACAAAGCUUGAGAGCAUCUUCGGAGGCAGCGGCGGCAGCCUUCGGUGGCGCGAUAGCGCCAACGUUCUCAACUAUGACACGCAAAACGCGUGCUCCCUUGAAUGGAGUUUAUCAUG [U61G A66C G133C], which “polymerase ribozyme fitness (log ratio)” value is on record?
The value was no more than -4.2.

Which “polymerase ribozyme fitness (log ratio)” value does the source give for GGAUCUUCUCGAUCUAACAAAAAAGACAAAUCUGCCACAAAGCUUGAGAGCAUCUUCGGAGGAAGAGGCGUCAGCCUUCAGUGGCGCGAUAGCUCCAACGUUCUGAACUAUGACAGGCAAAACGCGUGCUCCGUUGAAAGGAGUUUAUCAUG [U61G C63A G71U G80A G94U C105G C116G U139A] here?
Its value is no more than -4.2.

With GGAUCUUCUCGAUCUAACAAAAAAGACAAAUCUGCCACAAAGCUUGAGAGCAUCUUCGGAGGCAGAGGCGGCAGCCUUCGGUGGCGCGUUAGCGACAAAGUUCUCAACCAUGACACGCAAAACGCGUGCUCCGUUAAAUGGAGUUUAGAAUG [U61G A89U C95A C99A U109C G136A U148G C149A] as the variant, how does the “polymerase ribozyme fitness (log ratio)” value read?
Its value is no more than -4.2.

For GGAUCUUCUCGAUCUAACAAAAAAGACAAAUCUGCCACAAAGCUUGAGAGCAUCUUCGGAGGCAGCGGCGGCAGCCUUCGGUGGCGCGAUAGCGCCAACGUUCUCAACUAUGACACGCAAAACGCGUGCUCCGUUGAAUGGAGUUUAUCGUG [U61G A66C A150G], which “polymerase ribozyme fitness (log ratio)” value is on record?
The value was no more than -4.2.
